Results published in publication doi:10.1101/2024.06.25.600556 (bioRxiv, 2024).

Target: the molecule itself
Assay: crystal structure

B1: Streptococcus pneumoniae pyruvate kinase (enzyme)
chain: MNKRVKIVATLGPAVEIRGGKKFGEDGYWGEKLDVEASAKNIAKLIEAGANTFRFNFSHGDHQEQGERMATVKLAEKIAGKKVGFLLDTKGPEIRTELFEGEAKEYSYKTGEKIRVATKQGIKSTREVIALNVAGALDIYDDVEVGRQVLVDDGKLGLRVVAKDDATREFEVEVENDGIIAKQKGVNIPNTKIPFPALAERDNDDIRFGLEQGINFIAISFVRTAKDVNEVRAICEETGNGHVQLFAKIENQQGIDNLDEIIEAADGIMIARGDMGIEVPFEMVPVYQKMIIKKVNAAGKVVITATNMLETMTEKPRATRSEVSDVFNAVIDGTDATMLSGESANGKYPLESVTTMATIDKNAQALLNEYGRLDSDSFERNSKTEVMASAVKDATSSMDIKLVVTLTKTGHTARLISKYRPNADILALTFDELTERGLMLNWGVIPMLTDAPSSTDDMFEIAERKAVEAGLVESGDDIVIVAGVPVGEAVRTNTMRIRTVR
stoichiometry N: 4
